Experimental data as given in US20200024354A1 (OSSIANIX, published 2020).
Like-named read-outs stand apart in the source and are kept apart here.

T1: APRIL (Sigma) (UniProt O75888 105-250, limits assumed)
T1 sequence (looked up): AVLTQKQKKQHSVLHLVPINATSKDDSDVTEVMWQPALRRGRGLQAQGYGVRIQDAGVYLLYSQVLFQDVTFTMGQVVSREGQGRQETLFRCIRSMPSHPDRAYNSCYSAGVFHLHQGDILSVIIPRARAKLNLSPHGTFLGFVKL

B1: ID2-101B01 (VNAR)
VNAR: AARVDQTPQTITKETGESLTINCVLRDSNCALSSTYWYRKKSGSTNEESISKGGRYVETVNSGSKSFSLRINDLTVEDSGTYRCNVAPTIISGCSIKRRDVYGGGTAVTVNA
notes: Nurse shark VNAR single domain, monomer
B2: ID2-101B12 (VNAR)
VNAR: AARVDQTPQTITKETGESLTINCVLRDSNCALSSTYWYRKKSGSTNEESISKGGRYVETVNSGSKSFSLRINDLTVEDSGTYRCKVFIDPLLCSRDALGFSDVYGDGTAVTVNA
notes: as for B1
B3: ID2-101A01 (VNAR)
VNAR: AARVDQTPQTITKETGESLTINCVLRDSNCALSNLYWYRKKSGSTNEESISLGGRYVETVNSGSKSFSLRINDLTVEDSGTYRCKVRRARVIGGEYCRVQWQDVYGGGTAVTVNA
notes: Nurse shark VNAR single domain, monomer in periplasmic extract
B4: ID2-101C03 (VNAR)
chain: AQAAARVDQTPRSVTKETGESLTINCVLRDSICALSSTHWYRKKSGSTNEESISLGGRYVETVNSGSKSFSLKINDLTVEDSGTYRCKVTRYVVFSGSTCRMRRADVYGGGTVVTMNAASGAHHHHHHGADYKDDDDK
notes: as for B3
B5: ID2-101A07 (VNAR)
VNAR: AARVDQTPQTITKETGESLTINCVLRDSNCALSNLYWYRKKSGSTNEESISLGGRYVETVNSGSKSFSLRINDLTVEDSGTYRCKVQLPYDPLTKECILGRMDVYGDGTAVTVNA
notes: Nurse shark VNAR single domain, tested as monomer
B6: ID2-101B03 (VNAR)
VNAR: AARVDQTPRSVTKETGESLTINCVLRDNNCALSTTYWYRKKSGSTNEENISKGGRYVETVNSGSKSFSLRINDLTVEDSGTYRCKVKPDLLFCSSSGLGLIQDVYGGGTAVTVNA
notes: as for B3
B7: ID2-101C02 (VNAR)
VNAR: AARVDQTPQTITKETGESLTINCVLRDNNCALSTTYWYRKKSGSTNEENISKGGRYVETVNSGSKSFSLKINDLTVKDSGTYRCKVTRDPLFCSYRASKRHDVYGGGTVVTVNA
notes: as for B3
B8: ID2-101B11 (VNAR)
VNAR: AARVDQTPRSVTKETGESLTINCVLRDSNCALSSTYWYRKKSGSTNEENISKGGRYVETVNSGSKSFSLRINDLTVEDSGTYRCKVMLDPLLCPALLESMTDVYGGGTAVTVNA
notes: as for B1
B9: ID2-101A12 (VNAR)
VNAR: AARVDQTPQTVTKETGESLTINCVLRDASYALGSTCWYRKKSGSRNEESISKGGRYVETVNSGSKSFSLRINDLTVEDSGTYRCKVRDPLLFPRDRCDGESKDVYGGGTVVTVNA
notes: as for B1
B10: ID2-101A03 (VNAR)
VNAR: AARVDQTPQTITKETGESLTINCVLRDNNCALSTTYWYRKKSGSTNEENISKGGRYVETVNSGSKSFSLKINDLTVEDSGTYRCKVRVDRLLCGWRVGRRQLGDVYGGGTVVTVNA
notes: as for B1
B11: ID2-101A09 (VNAR)
VNAR: AARVDQTPQTITKETGESLTINCVLRDNNCALSTTYWYRKKSGSTNEESISKGGRYVETVNSGSKSFSLRINDLTVEDSGTYRCKVREDPLMCRYYLDRYRDVYGGGTVVTVNA
notes: as for B1
B12: ID2-101B10 (VNAR)
VNAR: AARVDQTPQTITKETGESLTINCVLRDSNCALSSTYWYRKKSGSTNEESISKGGRYVETVNSGSKSFSLRINDLTVEDSGTYRCKVRIDPLLCNASYVKWDDVYGGGTVVTVNA
notes: as for B1
B13: ID2-101C01 (VNAR)
VNAR: AARVDQTPQTITKETGESLTINCVLRDNNCALSTTYWYRKKSGSTNEENISKGGRYVETVNSGSKSFSLRINDLTVEDSGTYRCKVRLDLLLCRNGSTNSIDVYGGGTAVTVNA
notes: as for B1
B14: ID2-101B07 (VNAR)
VNAR: AARVDQTPRSVTKETGESLTINCVLRDSICALSSTHWYRKKSGSTNEESISKGGRYVETVNSGSKSFSLRINDLTVEDSGTYRCKVHGGRSTGLCGDVLLAGDVYGGGTAVTVNA
notes: as for B1
B15: ID2-101A05 (VNAR)
VNAR: AARVDQTPQTITKETGESLTINCVLRDNNCALSTTYWYRKKSGSTNEENISKGGRYVETVNSGSKSFSLRINDLTVEDSGTYRCKVSKDWLLCRDRGRRETDVYGDGTAVTVNA
notes: as for B5
B16: ID2-101B05 (VNAR)
VNAR: AARVDQTPRSVTKETGESLTINCVLRDSICALSSTHWYRKKSGSTNEESISKGGRYVETVNSGSKSFSLRINDLTVEDSGTYRCKVNHDLLTSSRRCQSQIKDVYGGGTVVTVNA
notes: as for B1

Assays:
[1] = molecular target: T2, recombinant human BAFF-Fc (Sino Biological) (human, UniProt Q9Y275 134-285); assay: ELISA, purified monomeric VNAR on coated BAFF-Fc, anti-FLAG detection
T2 construct: Bought reagent; also called hBAFF; not shown: Fc moiety detected by anti-human Fc
T2 sequence (Q9Y275 134-285): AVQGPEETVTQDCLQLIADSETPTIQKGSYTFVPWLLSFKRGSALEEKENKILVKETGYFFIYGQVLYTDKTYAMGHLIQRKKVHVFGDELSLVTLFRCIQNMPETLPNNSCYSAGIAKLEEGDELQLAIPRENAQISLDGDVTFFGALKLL

[2] = molecular target: T3, human serum albumin (Sigma) (human, UniProt P02768 25-609); assay: ELISA, periplasmic extract on coated HSA (1 µg/mL), anti-FLAG-HRP
T3 construct: Negative control coat; also called HSA
T3 sequence (P02768 25-609 limits assumed): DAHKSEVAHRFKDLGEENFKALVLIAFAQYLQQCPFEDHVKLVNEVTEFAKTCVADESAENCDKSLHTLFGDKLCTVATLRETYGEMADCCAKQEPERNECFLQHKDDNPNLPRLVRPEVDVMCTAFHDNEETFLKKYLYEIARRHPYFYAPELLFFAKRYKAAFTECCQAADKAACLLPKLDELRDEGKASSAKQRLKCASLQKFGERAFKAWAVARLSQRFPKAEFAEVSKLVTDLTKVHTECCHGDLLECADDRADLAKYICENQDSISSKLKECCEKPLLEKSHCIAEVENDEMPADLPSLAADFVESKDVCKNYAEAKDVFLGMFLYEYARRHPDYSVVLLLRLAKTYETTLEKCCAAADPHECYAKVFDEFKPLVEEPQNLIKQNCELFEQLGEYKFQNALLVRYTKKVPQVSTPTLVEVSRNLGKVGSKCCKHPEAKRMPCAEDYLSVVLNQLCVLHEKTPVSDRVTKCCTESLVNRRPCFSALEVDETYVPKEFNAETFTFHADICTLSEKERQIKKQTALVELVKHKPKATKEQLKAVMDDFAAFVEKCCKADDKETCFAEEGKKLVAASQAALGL
Method: (§1) After selection rounds three and four, 93 individual clones were picked and grown in 96 deep-well plates in auto-induction medium (Novagen). Periplasmic protein was extracted by osmotic shock as described in Müller M R et al. (Generation and isolation of target-specific single-domain antibodies from shark immune repertoires. Methods Mol Biol. 2012; 907:177-94) and directly used in a binding ELISA. Briefly, Nunc Maxisorp 96-well plates were coated at 1 μg/mL with either BAFF-Fc or HSA and periplasmic fraction, pre-blocked in PBS-0.1% Tween+2.5% milk, was exposed to the coated surface. After washing in PBS-0.1% Tween, bound VNARs were detected using a peroxidase-conjugated anti-FLAG antibody (Sigma). Absorbance at 450 nm was recorded using an Envision multiwell reader (Perkin Elmer) and BAFF-specific clones were selected using the criteria: BAFF signal/HSA signal ≥4. The DNA sequence of positive clones was determined by the Sanger chain termination method (GATC biotech), using the specific oligonucleotide 5′-[…]-3′. Protein alignments were performed using the BioEdit software.

[3] = molecular target: T2, recombinant human BAFF-Fc (Sino …); assay: blocking ELISA, VNAR diluted with 1.14 nM BAFF-Fc; binding of BAFF-Fc to coated BAFF-R extracellular domain
APRIL (Sigma) = molecular target: T1, APRIL (Sigma); assay: ELISA, periplasmic extract on coated APRIL (1 µg/mL), anti-FLAG-HRP
Method: Clones blocking the interaction between BAFF and its three receptors were tested for their ability to cross-react with BAFF's closest related protein, APRIL. Clones were grown in a 96 well format, periplasmic fraction was extracted by osmotic shock as previously described and directly used in a binding ELISA. Nunc Maxisorp 96 well plates were coated at 1 μg/mL with either BAFF-Fc (Sino Biological), HSA (Sigma), or APRIL (Sigma) and periplasmic fraction, pre-blocked in PBS-0.1% Tween+2.5% Milk, was exposed to the coated surface. After washing in PBS-0.1% Tween, bound VNARs were detected using a peroxidase-conjugated anti-FLAG antibody (Sigma). Absorbance at 450 nm was recorded using an Envision multiwell reader (Perkin Elmer).

[4] = molecular target: T2, recombinant human BAFF-Fc (Sino …); assay: ELISA, periplasmic extract on coated BAFF-Fc (1 µg/mL), anti-FLAG-HRP
Method: as §1

[5] = molecular target: T2, recombinant human BAFF-Fc (Sino …); assay: cell-based or functional assay
[6] = molecular target: T2, recombinant human BAFF-Fc (Sino …); assay: blocking ELISA, binding of BAFF-Fc to coated BR3 (BAFF-R); repeats Table 2
[7] = molecular target: T2, recombinant human BAFF-Fc (Sino …); assay: blocking ELISA, VNAR diluted with 0.5 nM BAFF-Fc; binding of BAFF-Fc to coated BCMA
Method: (§2) The pre-blocked proteins were then exposed to Nunc Maxisorp 96 well plates which were coated at 1 μg/mL with the recombinant human TACI or BCMA (Peprotech), preblocked in (PBS-0.1% Tween+2.5% Milk). After washing in PBS-0.1% Tween, BAFF bound to its receptor was detected via its Fc moiety using a peroxidase-conjugated anti-human Fc (Sigma). Absorbance at 450 nm was recorded using an Envision multiwell reader (Perkin Elmer) and IC50 values were calculated by fitting the curves (non-linear regression) using GraphPad Prism®. The results are shown in FIG. 15 and the fitted IC50 values are tabulated below.

[8] = molecular target: T2, recombinant human BAFF-Fc (Sino …); assay: blocking ELISA, VNAR diluted with 0.5 nM BAFF-Fc; binding of BAFF-Fc to coated TACI
Method: as §2

[9] = molecular target: T3, human serum albumin (Sigma); assay: ELISA, periplasmic extract on coated HSA (1 µg/mL), anti-FLAG-HRP; remark: listed apart in the source
[10] = molecular target: recombinant mouse BAFF (R&D Systems) (mouse, UniProt Q9WU72 127-309); assay: Mouse cross-reactivity grade (binds to both human and mouse BAFF); assay not described
Sequence of recombinant mouse BAFF (R&D Systems) (Q9WU72 127-309 limits assumed): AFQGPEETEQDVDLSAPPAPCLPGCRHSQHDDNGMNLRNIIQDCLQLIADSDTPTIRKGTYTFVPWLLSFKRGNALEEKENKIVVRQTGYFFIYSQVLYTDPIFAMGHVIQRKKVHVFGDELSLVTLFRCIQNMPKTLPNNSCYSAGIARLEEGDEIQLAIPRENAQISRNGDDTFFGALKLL

| Binder | EC50 [1] [nM] | binding result [2] | IC50 [3] [nM] | binding result (APRIL (Sigma)) | binding result [4] | CELLULAR IC50 [5] [nM] | IC50 [6] [nM] | IC50 [7] [nM] | IC50 [8] [nM] | binding result [9] | binding result [10] |
| --- | --- | --- | --- | --- | --- | --- | --- | --- | --- | --- | --- |
| B1 | 7.4 | no binding | 91.2 |  |  |  |  |  |  |  |  |
| B2 | 2.7 | no binding | 9.32 | no binding |  |  |  |  |  |  |  |
| B3 |  |  |  |  | binds |  |  |  |  |  |  |
| B4 |  |  |  |  | binds |  |  |  |  |  |  |
| B5 | 0.5 | no binding | 6.8 | no binding |  | 58 | 6.8 | 24.5 | 82.7 |  |  |
| B6 |  |  |  |  | binds |  |  |  |  |  |  |
| B7 |  |  |  |  | binds |  |  |  |  |  |  |
| B8 | 2.49 | no binding | 6.85 | no binding |  |  |  |  |  |  |  |
| B9 | 4.57 |  | 49.2 |  |  |  |  |  |  | no binding |  |
| B10 | 17.2 | no binding | 12.3 | no binding |  |  |  |  |  |  |  |
| B11 | 4.9 |  | 9.7 | no binding |  | 215 | 9.7 | 23.6 | 27.2 | no binding | binds |
| B12 | 1 | no binding | 2.8 | no binding |  | ~100 | 2.8 | 10.5 | 14.1 |  | binds |
| B13 | 2.13 | no binding | 3.85 |  |  |  |  |  |  |  |  |
| B14 | 0.8 |  | 6.8 |  |  | 60 | 6.8 | 18.9 | 24 | no binding |  |
| B15 | 1.5 | no binding | 13.8 | no binding |  | 135 | 13.8 | 17.4 | 57.8 |  | binds |
| B16 | 11.8 | no binding | 148 | no binding |  |  |  |  |  |  |  |
